In patent publication US20180291353A1, “MONOFUNCTIONAL ALDEHYDE AND ALCOHOL DEHYDROGENASES FOR PRODUCTION OF FUELS AND COMMODITY CHEMICALS” (The Regents of the University of California, priority 2015, published 2018):

Columns and labels:
[1] = molecular target: T1, ALDH16 (monofunctional aldehyde dehydrogenase, GI 150018649, SEQ ID NO: 16; Strep-ALDH16) (Clostridium diolis, UniProt A0AAV3W6M8); assay: In vitro kinetics of aldehyde/alcohol dehydrogenases, oxidation of NADH at 340 nm (purified Strep-ALDH16); format: biochemical
T1 sequence (A0AAV3W6M8 1-468): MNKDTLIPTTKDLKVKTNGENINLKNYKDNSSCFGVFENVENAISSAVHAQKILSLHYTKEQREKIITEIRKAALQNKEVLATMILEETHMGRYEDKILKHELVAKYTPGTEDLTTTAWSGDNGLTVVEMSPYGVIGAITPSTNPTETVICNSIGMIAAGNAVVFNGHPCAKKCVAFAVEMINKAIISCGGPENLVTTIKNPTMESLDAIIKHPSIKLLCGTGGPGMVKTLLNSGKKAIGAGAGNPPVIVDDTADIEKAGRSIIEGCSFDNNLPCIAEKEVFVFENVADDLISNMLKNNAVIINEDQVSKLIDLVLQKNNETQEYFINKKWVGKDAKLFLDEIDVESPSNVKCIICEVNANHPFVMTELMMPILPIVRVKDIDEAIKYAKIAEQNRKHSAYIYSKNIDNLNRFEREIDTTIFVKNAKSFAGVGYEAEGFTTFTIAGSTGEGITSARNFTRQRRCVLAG
Experimental: (§1) Activity of ALDH proteins was measured by monitoring the oxidation of NADH at 340 nm at 30° C. The assay mixture (400 μL) contained 100 μM NADH in 100 mM Tris 1 mM DTT pH 7.5. The reaction was initiated by the addition of substrate. Kinetic parameters (kcat, KM) were determined by fitting the data using Microcal Origin to the equation: vo=vmax [S]/(KM+[S]), where v is the initial rate and [S] is the substrate concentration. Data are reported as mean±s.e. (n=3) unless otherwise noted with standard error derived from the nonlinear curve fitting. Error bars on graphs represent mean±s.d. (n=3). Error in kcat/KM is calculated by propagation of error from the individual kinetic parameters.
(§2) To further explore the potential for expressing monofunctional aldehyde and alcohol dehydrogenases in host cells for the production of alcohols, various aldehyde and alcohol dehydrogenases were purified and isolated to investigate their in vitro kinetic behavior with various C4 and C2 substrates. In particular, the monofunctional aldehyde dehydrogenase identified in FIG. 3 above (GI 150018649, also referred to as ALDH16) was purified (FIG. 4A and FIG. 4B) and the in vitro kinetic behavior of a purified Strep-ALDH16 protein with various C4 and C2 substrates was tested.

[2] = molecular target: T2, AdhE2-ALDH (aldehyde dehydrogenase domain of bifunctional AdhE2, wild type, GI 499193180, SEQ ID NO: 41) (Clostridium acetobutylicum, UniProt Q9ANR5); assay: In vitro kinetics of aldehyde/alcohol dehydrogenases, oxidation of NADH at 340 nm (aldehyde dehydrogenase domain of AdhE2)
T2 sequence (Q9ANR5 1-858): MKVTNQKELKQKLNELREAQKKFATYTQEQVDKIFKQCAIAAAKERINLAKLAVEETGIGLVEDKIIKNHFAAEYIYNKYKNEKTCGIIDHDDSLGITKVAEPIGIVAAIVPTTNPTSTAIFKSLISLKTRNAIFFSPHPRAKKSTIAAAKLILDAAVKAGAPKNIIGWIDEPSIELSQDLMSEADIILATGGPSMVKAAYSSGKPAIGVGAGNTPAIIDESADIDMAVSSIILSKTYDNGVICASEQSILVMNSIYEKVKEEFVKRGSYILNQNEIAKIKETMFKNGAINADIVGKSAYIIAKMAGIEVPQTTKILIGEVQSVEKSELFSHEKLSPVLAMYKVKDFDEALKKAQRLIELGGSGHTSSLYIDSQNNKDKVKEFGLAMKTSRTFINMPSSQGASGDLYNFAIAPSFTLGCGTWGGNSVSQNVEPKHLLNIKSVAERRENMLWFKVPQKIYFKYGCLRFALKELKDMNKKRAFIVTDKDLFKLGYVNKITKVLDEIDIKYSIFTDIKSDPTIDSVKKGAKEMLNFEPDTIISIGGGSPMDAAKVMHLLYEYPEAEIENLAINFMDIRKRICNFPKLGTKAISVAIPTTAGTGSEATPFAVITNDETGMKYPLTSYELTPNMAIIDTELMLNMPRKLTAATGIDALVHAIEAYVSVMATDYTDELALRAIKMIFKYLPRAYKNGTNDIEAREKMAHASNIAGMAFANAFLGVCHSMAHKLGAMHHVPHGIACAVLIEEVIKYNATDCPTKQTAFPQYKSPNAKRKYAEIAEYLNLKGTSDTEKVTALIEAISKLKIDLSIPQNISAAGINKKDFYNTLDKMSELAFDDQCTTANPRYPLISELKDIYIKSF

[3] = substrate: CCCC=O; assay: In vitro kinetics of aldehyde/alcohol dehydrogenases, oxidation of NADH at 340 nm (alcohol dehydrogenase domain of AdhE2); format: biochemical; details: other: 100 μM NADH, 100 mM Tris, 1 mM DTT, pH 7.5, 30° C., mean±s.e. (n=3)
Experimental: as §1, §2

[4] = substrate: CC=O; assay: as above; format: biochemical; details: other: 100 μM NADH, 100 mM Tris, 1 mM DTT, pH 7.5, 30° C., mean±s.e. (n=3)
Experimental: as §1, §2

[5] = test system: butanol production pathway; assay: Butanol and ethanol production in E. coli MC1.24 (quintuple KO) with bifunctional or monofunctional dehydrogenases (FIG. 5); format: cell-based; details: E. coli MC1.24, FIG. 5
From the text: FIG. 5 illustrates genetically engineered improvement of a butanol production pathway composed of monofunctional aldehyde and alcohol dehydrogenases. The fuel titer of either butanol or ethanol in E. coli cells expressing the biosynthetic pathway shown in FIG. 6A with various particular alcohol and/or aldehyde dehydrogenases is shown. Specifically, E. coli MC1.24 (quintuple KO) was transformed with pT533-phaA.HBD, pBBR2-aceE.F.lpd and 1: pCWO.trc-ter-adhE2, 2: pCDF3-aldh16, 3: pCWori-ter-aldh16.CaADH, or 4: pCWO.trc-ter-aldh16.CaADH as indicated.
. The cultures were grown at 37° C. in a rotary shaker (200 r.p.m.) and induced with IPTG (1.0 mM) at OD600=0.35-0.45. At this time, the growth temperature was reduced to 30° C., and the culture flasks were sealed with Parafilm M (Pechiney Plastic Packaging) to prevent product evaporation for aerobic cultures. Anaerobic cultures were sealed and the headspace was sparged with argon for 5 minutes immediately follow induction. Aerobic cultures were unsealed for 10 to 30 min every 24 h then resealed with Parafilm M, and additional glucose (1% (w/v)) was added 1 day post-induction. Samples were quantified after 3 d of cell culture.
Samples (2 ml) were removed from cell culture and cleared of biomass by centrifugation at 20,817 g for 2 min using an Eppendorf 5417R centrifuge. The supernatant or cleared medium sample was then mixed in a 9:1 ratio with an aqueous solution containing the isobutanol internal standard (10,000 mg l^−1). These samples were then analyzed on a Trace GC Ultra (Thermo Scientific) using an HP-5MS column (0.25 mm×30 m, 0.25 μM film thickness, J & W Scientific). The oven program was as follows: 75° C. for 3 min, ramp to 300° C. at 45° C. min^−1, 300° C. for 1 min. n-Butanol was quantified by flame ionization detection (FID) (flow: 350 ml min^−1 air, 35 ml min^−1 H2 and 30 ml min^−1 helium). Samples containing n-butanol levels below 500 mg 1^−1 were requantified after extraction of the cleared medium sample or standard (500 μl) with toluene (500 μl) containing the isobutanol internal standard (100 mg 1^−1) using a Digital Vortex Mixer (Fisher) for 5 min set at 2,000. The organic layer was then quantified using the same GC parameters with a DSQII single-quadrupole mass spectrometer (Thermo Scientific) using single-ion monitoring (m/z 41 and 56) concurrent with full scan mode (m/z 35-80). Samples were quantified relative to a standard curve of 2, 4, 8, 16, 31, 63, 125, 250, 500 mg 1^−1 n-butanol for MS detection or 125, 250, 500, 1,000, 2,000, 4,000, 8,000 mg 1^−1 n-butanol for FID detection. Standard curves were prepared freshly during each run and normalized for injection volume using the internal isobutanol standard (100 or 1,000 mg 1^−1 for MS and FID, respectively). […]

[6] = 100 μM NADH, 100 mM Tris, 1 mM DTT, pH 7.5, 30° C., mean±s.e. (n=3)

Question: CCCC(=O)SCCNC(=O)CCNC(=O)[C@H](O)C(C)(C)COP(=O)(O)OP(=O)(O)OC[C@H]1O[C@@H](n2cnc3c(N)ncnc32)[C@H](O)[C@@H]1OP(=O)(O)O [butyryl-CoA] was tested. Which kcat [1, 6] did it give?
Answer: The kcat was 0.11 ± 0.01 s⁻¹.

Question: And the “preference (specificity) for butyryl-CoA over acetyl-CoA” value ([1]; from Table 4)?
Answer: The value was 73 fold.

Question: And the kcat [2, 6]?
Answer: Its kcat is 1.2 ± 0.1 s⁻¹.

Question: What about the “preference for butyryl-CoA over acetyl-CoA” value ([2]; from Table 4) of the same molecule?
Answer: Its value is 8.5 fold.

B1: AdhE2-ADH (alcohol dehydrogenase domain of bifunctional AdhE2, wild type, GI 499193180, SEQ ID NO: 41) (Clostridium acetobutylicum) (protein)
chain: MKVTNQKELKQKLNELREAQKKFATYTQEQVDKIFKQCAIAAAKERINLAKLAVEETGIGLVEDKIIKNHFAAEYIYNKYKNEKTCGIIDHDDSLGITKVAEPIGIVAAIVPTTNPTSTAIFKSLISLKTRNAIFFSPHPRAKKSTIAAAKLILDAAVKAGAPKNIIGWIDEPSIELSQDLMSEADIILATGGPSMVKAAYSSGKPAIGVGAGNTPAIIDESADIDMAVSSIILSKTYDNGVICASEQSILVMNSIYEKVKEEFVKRGSYILNQNEIAKIKETMFKNGAINADIVGKSAYIIAKMAGIEVPQTTKILIGEVQSVEKSELFSHEKLSPVLAMYKVKDFDEALKKAQRLIELGGSGHTSSLYIDSQNNKDKVKEFGLAMKTSRTFINMPSSQGASGDLYNFAIAPSFTLGCGTWGGNSVSQNVEPKHLLNIKSVAERRENMLWFKVPQKIYFKYGCLRFALKELKDMNKKRAFIVTDKDLFKLGYVNKITKVLDEIDIKYSIFTDIKSDPTIDSVKKGAKEMLNFEPDTIISIGGGSPMDAAKVMHLLYEYPEAEIENLAINFMDIRKRICNFPKLGTKAISVAIPTTAGTGSEATPFAVITNDETGMKYPLTSYELTPNMAIIDTELMLNMPRKLTAATGIDALVHAIEAYVSVMATDYTDELALRAIKMIFKYLPRAYKNGTNDIEAREKMAHASNIAGMAFANAFLGVCHSMAHKLGAMHHVPHGIACAVLIEEVIKYNATDCPTKQTAFPQYKSPNAKRKYAEIAEYLNLKGTSDTEKVTALIEAISKLKIDLSIPQNISAAGINKKDFYNTLDKMSELAFDDQCTTANPRYPLISELKDIYIKSF
notes: alcohol dehydrogenase activity (C-terminal domain) measured
Question: With B1 as the molecule, how does the Km [3] read?
Answer: The Km was 4 ± 0.4 mM.

Question: And the kcat [3]?
Answer: Its kcat is 2.9 ± 0.1 s⁻¹.

Question: What about the kcat/Km [3] of the same molecule?
Answer: The kcat/Km was 700 ± 20 M⁻¹ s⁻¹.

Question: What about the Km [4] of the same molecule?
Answer: The Km was 4.5 ± 0.3 mM.

B2: AdhE2: bifunctional alcohol and aldehyde dehydrogenase, wild-type AdhE2 (protein, listed as Clostridium acetobutylicum)
chain: MKVTNQKELKQKLNELREAQKKFATYTQEQVDKIFKQCAIAAAKERINLAKLAVEETGIGLVEDKIIKNHFAAEYIYNKYKNEKTCGIIDHDDSLGITKVAEPIGIVAAIVPTTNPTSTAIFKSLISLKTRNAIFFSPHPRAKKSTIAAAKLILDAAVKAGAPKNIIGWIDEPSIELSQDLMSEADIILATGGPSMVKAAYSSGKPAIGVGAGNTPAIIDESADIDMAVSSIILSKTYDNGVICASEQSILVMNSIYEKVKEEFVKRGSYILNQNEIAKIKETMFKNGAINADIVGKSAYIIAKMAGIEVPQTTKILIGEVQSVEKSELFSHEKLSPVLAMYKVKDFDEALKKAQRLIELGGSGHTSSLYIDSQNNKDKVKEFGLAMKTSRTFINMPSSQGASGDLYNFAIAPSFTLGCGTWGGNSVSQNVEPKHLLNIKSVAERRENMLWFKVPQKIYFKYGCLRFALKELKDMNKKRAFIVTDKDLFKLGYVNKITKVLDEIDIKYSIFTDIKSDPTIDSVKKGAKEMLNFEPDTIISIGGGSPMDAAKVMHLLYEYPEAEIENLAINFMDIRKRICNFPKLGTKAISVAIPTTAGTGSEATPFAVITNDETGMKYPLTSYELTPNMAIIDTELMLNMPRKLTAATGIDALVHAIEAYVSVMATDYTDELALRAIKMIFKYLPRAYKNGTNDIEAREKMAHASNIAGMAFANAFLGVCHSMAHKLGAMHHVPHGIACAVLIEEVIKYNATDCPTKQTAFPQYKSPNAKRKYAEIAEYLNLKGTSDTEKVTALIEAISKLKIDLSIPQNISAAGINKKDFYNTLDKMSELAFDDQCTTANPRYPLISELKDIYIKSF
Question: Which butanol production [5] does the source give for B2 here?
Answer: Its butanol production is 4.5 g/L.

Question: What about the ethanol production [5] of the same molecule?
Answer: The ethanol production was 3 g/L.
